Experimental data taken from patent US20240190936A1 (Eli Lilly, published 2024).
Numbering of substitutions follows the chain as printed. *1 amine or outer side, *2 acyl side, *3 side chain or, on linkers, in order; H or OH if unused. Where no end group is shown, it is not given here. Side-chain parts run from the residue outwards. [ ]: non-standard residue; d: D form. The star is where a group is joined. C20 diacid = O=C(O)CCCCCCCCCCCCCCCCCCC(=O)*; αMePhe(2-F) = C[C@](N)(Cc1ccccc1F)C(=O)O; γGlu = O=C(O)[C@H](CCC(=O)[*:2])N[*:1]; AEEA = NCCOCCOCC(=O)O; Aib = CC(C)(N)C(=O)O

T1: human GIP receptor (human, UniProt P48546 22-466)
T1 sequence (looked up): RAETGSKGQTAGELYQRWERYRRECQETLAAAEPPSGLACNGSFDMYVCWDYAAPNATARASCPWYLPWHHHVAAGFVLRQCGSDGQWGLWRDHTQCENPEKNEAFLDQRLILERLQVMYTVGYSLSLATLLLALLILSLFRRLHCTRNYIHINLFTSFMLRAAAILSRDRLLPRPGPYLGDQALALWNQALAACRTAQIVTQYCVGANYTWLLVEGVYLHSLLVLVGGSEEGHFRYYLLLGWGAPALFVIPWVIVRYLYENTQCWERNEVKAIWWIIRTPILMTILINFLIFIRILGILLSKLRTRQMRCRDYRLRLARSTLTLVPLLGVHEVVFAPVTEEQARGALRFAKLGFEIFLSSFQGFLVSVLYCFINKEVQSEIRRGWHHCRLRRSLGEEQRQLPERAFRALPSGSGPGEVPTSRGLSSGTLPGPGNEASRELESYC

B1: Example 1 (peptide)
peptide: YXQGTXTSDYSILLDKKAQXAFIEYLLEGGPSSGAPPPS
modifications: Aib at 2; αMeF at 6; K17 conjugated at the epsilon-amino group with (2-[2-(2-amino-ethoxy)-ethoxy]-acetyl)2-(γGlu)-CO-(CH2)18-CO2H; Aib at 20; C-terminal amide
notes: Synthetic acylated peptide
B2: Example 4 (peptide)
peptide: B1 peptide
modifications: Aib at 2; αMeF(2F) at 6; K17 conjugated at the epsilon-amino group with (2-[2-(2-amino-ethoxy)-ethoxy]-acetyl)-(γGlu)-CO-(CH2)18-CO2H; Aib at 20; C-terminal amide
notes: Synthetic acylated peptide
B3: Example 2 (peptide)
peptide: B1 peptide with L13X
modifications: Aib at 2; αMeF at 6; αMeL at 13; K17 conjugated at the epsilon-amino group with (2-[2-(2-amino-ethoxy)-ethoxy]-acetyl)2-(γGlu)-CO-(CH2)18-CO2H; Aib at 20; C-terminal amide
notes: Synthetic acylated peptide
B4: Example 3 (peptide)
peptide: B1 peptide with Q3H
modifications: Aib at 2; αMeF(2F) at 6; K17 conjugated at the epsilon-amino group with (2-[2-(2-amino-ethoxy)-ethoxy]-acetyl)2-(γGlu)-CO-(CH2)18-CO2H; Aib at 20; C-terminal amide
notes: Synthetic acylated peptide
B5: Example 5 (peptide)
peptide: Y[Aib]QGT[αMePhe(2-F)]TSDYSILLDKK([AEEA-γGlu-C20 diacid])AQQAFIEYLLEGGPSSGAPPPS-NH2
modifications: N-terminus assumed
SMILES: CC[C@H](C)[C@H](NC(=O)[C@H](Cc1ccccc1)NC(=O)[C@H](C)NC(=O)[C@H](CCC(N)=O)NC(=O)[C@H](CCC(N)=O)NC(=O)[C@H](C)NC(=O)[C@H](CCCCNC(=O)COCCOCCNC(=O)CC[C@H](NC(=O)CCCCCCCCCCCCCCCCCCC(=O)O)C(=O)O)NC(=O)[C@H](CCCCN)NC(=O)[C@H](CC(=O)O)NC(=O)[C@H](CC(C)C)NC(=O)[C@H](CC(C)C)NC(=O)[C@@H](NC(=O)[C@H](CO)NC(=O)[C@H](Cc1ccc(O)cc1)NC(=O)[C@H](CC(=O)O)NC(=O)[C@H](CO)NC(=O)[C@@H](NC(=O)[C@](C)(Cc1ccccc1F)NC(=O)[C@@H](NC(=O)CNC(=O)[C@H](CCC(N)=O)NC(=O)C(C)(C)NC(=O)[C@@H](N)Cc1ccc(O)cc1)[C@@H](C)O)[C@@H](C)O)[C@@H](C)CC)C(=O)N[C@@H](CCC(=O)O)C(=O)N[C@@H](Cc1ccc(O)cc1)C(=O)N[C@@H](CC(C)C)C(=O)N[C@@H](CC(C)C)C(=O)N[C@@H](CCC(=O)O)C(=O)NCC(=O)NCC(=O)N1CCC[C@H]1C(=O)N[C@@H](CO)C(=O)N[C@@H](CO)C(=O)NCC(=O)N[C@@H](C)C(=O)N1CCC[C@H]1C(=O)N1CCC[C@H]1C(=O)N1CCC[C@H]1C(=O)N[C@@H](CO)C(N)=O
notes: Synthetic acylated peptide
B6: Example 6 (peptide)
peptide: Y[Aib]QGT[αMePhe(2-F)]TSDYSILLDKK([AEEA-γGlu-C20 diacid])AQHAFIEYLLEGGPSSGAPPPS-NH2
modifications: N-terminus assumed
SMILES: CC[C@H](C)[C@H](NC(=O)[C@H](Cc1ccccc1)NC(=O)[C@H](C)NC(=O)[C@H](Cc1c[nH]cn1)NC(=O)[C@H](CCC(N)=O)NC(=O)[C@H](C)NC(=O)[C@H](CCCCNC(=O)COCCOCCNC(=O)CC[C@H](NC(=O)CCCCCCCCCCCCCCCCCCC(=O)O)C(=O)O)NC(=O)[C@H](CCCCN)NC(=O)[C@H](CC(=O)O)NC(=O)[C@H](CC(C)C)NC(=O)[C@H](CC(C)C)NC(=O)[C@@H](NC(=O)[C@H](CO)NC(=O)[C@H](Cc1ccc(O)cc1)NC(=O)[C@H](CC(=O)O)NC(=O)[C@H](CO)NC(=O)[C@@H](NC(=O)[C@](C)(Cc1ccccc1F)NC(=O)[C@@H](NC(=O)CNC(=O)[C@H](CCC(N)=O)NC(=O)C(C)(C)NC(=O)[C@@H](N)Cc1ccc(O)cc1)[C@@H](C)O)[C@@H](C)O)[C@@H](C)CC)C(=O)N[C@@H](CCC(=O)O)C(=O)N[C@@H](Cc1ccc(O)cc1)C(=O)N[C@@H](CC(C)C)C(=O)N[C@@H](CC(C)C)C(=O)N[C@@H](CCC(=O)O)C(=O)NCC(=O)NCC(=O)N1CCC[C@H]1C(=O)N[C@@H](CO)C(=O)N[C@@H](CO)C(=O)NCC(=O)N[C@@H](C)C(=O)N1CCC[C@H]1C(=O)N1CCC[C@H]1C(=O)N1CCC[C@H]1C(=O)N[C@@H](CO)C(N)=O
notes: Synthetic acylated peptide

biological target: T2, human glucagon receptor (human, UniProt P47871 26-477); assay: cell-based or functional assay
T2 sequence (P47871 26-477): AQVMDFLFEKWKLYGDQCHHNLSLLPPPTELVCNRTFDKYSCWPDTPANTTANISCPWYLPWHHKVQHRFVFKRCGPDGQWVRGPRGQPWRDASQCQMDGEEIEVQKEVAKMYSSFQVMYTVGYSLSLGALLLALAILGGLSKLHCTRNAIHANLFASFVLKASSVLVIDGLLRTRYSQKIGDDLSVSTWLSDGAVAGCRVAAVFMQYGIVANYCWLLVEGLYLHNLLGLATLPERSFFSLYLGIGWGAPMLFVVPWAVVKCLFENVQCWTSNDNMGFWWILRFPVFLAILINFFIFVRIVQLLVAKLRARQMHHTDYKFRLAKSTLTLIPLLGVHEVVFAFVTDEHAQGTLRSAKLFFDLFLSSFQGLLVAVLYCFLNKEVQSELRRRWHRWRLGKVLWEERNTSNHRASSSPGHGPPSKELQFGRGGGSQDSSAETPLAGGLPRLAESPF

Binder	cAMP EC50, in the presence of FBS and BSA [nM]
B1	6.33
B2	1.78
B3	4.75
B4	3.46
B5	1.87
B6	1.76

biological target: T1, human GIP receptor; assay: cell-based or functional assay

Binder	cAMP EC50, in the presence of FBS and BSA [nM]
B1	1.82
B2	1.37
B3	1.34
B4	1.37
B5	1.91
B6	1.41

biological target: T3, human GLP-1 receptor (human, UniProt P43220 24-463); assay: cell-based or functional assay

Binder	cAMP EC50, in the presence of FBS and BSA [nM]
B1	12.6
B2	10.6
B3	11.6
B4	13.1
B5	13
B6	8.94

biological target: T2, human glucagon receptor; assay: cell-based or functional assay; remark: another data set of the same source

Binder	cAMP EC50, in the presence of 0.1% casein [nM]
B1	0.158
B2	0.0296
B3	0.096
B4	0.0301
B5	0.0343
B6	0.0293

biological target: T1, human GIP receptor; assay: cell-based or functional assay; remark: another data set of the same source

Binder	cAMP EC50, in the presence of 0.1% casein [nM]
B1	0.0226
B2	0.0321
B3	0.0329
B4	0.0215
B5	0.0306
B6	0.0349

biological target: T3, human GLP-1 receptor; assay: cell-based or functional assay; remark: another data set of the same source

Binder	cAMP EC50, in the presence of 0.1% casein [nM]
B1	0.112
B2	0.145
B3	0.106
B4	0.104
B5	0.103
B6	0.115

biological target: T1, human GIP receptor; assay: radioligand competition SPA, membranes of HEK293 cells overexpressing human GIPR
Procedure: (§1) Radioligand competition binding assays are run to determine the equilibrium dissociation constant for Example compounds and comparator molecules.
(§2) The assays are performed in the presence of bacitracin as a non-specific blocking agent to prevent acylated moieties of test analogs from binding to protein components used in standard assay buffers (e.g., albumin).
(§3) Competition curves are plotted as the percent specific inhibition (y-axis) versus log concentration of compound (x-axis) and analyzed using a four parameter nonlinear regression fit with variable slope (ABase or Genedata).

Binder	Ki [nM]
B1	0.0278
B2	0.0832
B3	0.0413
B4	0.0684
B5	0.0347
B6	0.0388

biological target: T2, human glucagon receptor; assay: radioligand competition SPA, membranes of HEK293 cells overexpressing human GcgR
Procedure: as §1, §2, §3

Binder	Ki [nM]
B1	0.955
B2	0.637
B3	1.49
B4	0.469
B5	0.419
B6	0.382

biological target: T3, human GLP-1 receptor; assay: radioligand competition SPA, membranes of HEK293 cells overexpressing human GLP-1R
Procedure: as §1, §2, §3

Binder	Ki [nM]
B1	2.51
B2	1.21
B3	2.41
B4	1.66
B5	1.17
B6	0.822
